The values below come from patent US20140044674A1.

This assay addresses IL-10R on freshly isolated human blood monocytes (human) (UniProt Q13651). The experiment in a line: cell-based or functional assay.

Chain of IL-10R on freshly isolated human blood monocytes (human) (Q13651 22-578, chain 1 of 2): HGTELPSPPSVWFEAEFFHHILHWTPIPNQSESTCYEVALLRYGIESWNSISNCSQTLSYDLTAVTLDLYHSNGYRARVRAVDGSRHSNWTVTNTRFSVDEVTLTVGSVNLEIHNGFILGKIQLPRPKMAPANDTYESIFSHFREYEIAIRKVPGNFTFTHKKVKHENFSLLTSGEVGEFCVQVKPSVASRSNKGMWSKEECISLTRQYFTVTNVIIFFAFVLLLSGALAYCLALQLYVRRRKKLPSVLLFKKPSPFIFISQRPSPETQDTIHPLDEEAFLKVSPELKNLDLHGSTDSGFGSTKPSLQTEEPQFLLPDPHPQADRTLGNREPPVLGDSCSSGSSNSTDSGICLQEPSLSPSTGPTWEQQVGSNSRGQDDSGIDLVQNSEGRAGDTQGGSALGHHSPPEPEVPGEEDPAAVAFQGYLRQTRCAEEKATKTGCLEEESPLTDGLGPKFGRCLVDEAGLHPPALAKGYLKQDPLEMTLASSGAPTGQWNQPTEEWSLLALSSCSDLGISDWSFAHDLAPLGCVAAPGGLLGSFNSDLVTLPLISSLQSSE
Chain of IL-10R on freshly isolated human blood monocytes (human) (Q08334 20-325, chain 2 of 2, further chain): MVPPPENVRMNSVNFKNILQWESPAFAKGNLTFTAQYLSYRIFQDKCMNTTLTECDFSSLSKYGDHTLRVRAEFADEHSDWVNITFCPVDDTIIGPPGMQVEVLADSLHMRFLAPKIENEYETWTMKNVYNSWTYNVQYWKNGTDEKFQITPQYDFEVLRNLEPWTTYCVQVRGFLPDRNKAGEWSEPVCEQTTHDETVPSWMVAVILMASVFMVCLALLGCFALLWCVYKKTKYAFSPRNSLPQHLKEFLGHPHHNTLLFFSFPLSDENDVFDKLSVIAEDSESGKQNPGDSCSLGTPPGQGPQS

For the substance “recombinant wild type human IL-10 (from UniProt P22301 19-178) (ligand)”, the EC50 [nM] pSTAT3 induction, primary monocytes is 0.017 nM; the EC50 [nM] pSTAT3 induction, primary monocytes, Donor 1 is 0.029 nM; the EC50 [nM] pSTAT3 induction, primary monocytes, Donor 2 is 0.019 nM; the EC50 [nM] pSTAT3 induction, primary monocytes, Donor 3 is 0.021 nM.
